Biological target: Ras:G12V mutant (UniProt P01112)
Experiment: pull-down

- percent inhibition of binding: 80%
B1: RIN1-RA:R629A mutant (natural protein)
chain: MESPGESGAGSPGAPSPSSFTTGHLAREKPAQDPLYDVPNASGGQAGGPQRPGRVVSLRERLLLTRPVWLQLQANAAAALHMLRTEPPGTFLVRKSNTRQCQALCMRLPEASGPSFVSSHYILESPGGVSLEGSELMFPDLVQLICAYCHTRDILLLPLQLPRAIHHAATHKELEAISHLGIEFWSSSLNIKAQRGPAGGPVLPQLKARSPQELDQGTGAALCFFNPLFPGDLGPTKREKFKRSFKVRVSTETSSPLSPPAVPPPPVPVLPGAVPSQTERLPPCQLLRRESSVGYRVPAGSGPSLPPMPSLQEVDCGSPSSSEEEGVPGSRGSPATSPHLGRRRPLLRSMSAAFCSLLAPERQVGRAAAALMQDRHTAAGQLVQDLLTQVRAGPEPQELQGIRQALSRARAMLSAELGPEKLLSPKRLEHVLEKSLHCSVLKPLRPILAARLRRRLAADGSLGRLAEGLRLARAQGPGAFGSHLSLPSPVELEQVRQKLLQLLRTYSPSAQVKRLLQACKLLYMALRTQEGEGAGADEFLPLLSLVLAHCDLPELLLEAEYMSELLEPSLLTGEGGYYLTSLSASLALLSGLGQAHTLPLSPVQELRRSLSLWEQRRLPATHCFQHLLAVAYQDPSSGCTSKTLAVPPEASIATLNQLCATKFRVTQPNTFGLFLYKEQGYHRLPPGALAHRLPTTGYLVYRRAEWPETQGAVTEEEGSGQSEARSRGEEQGCQGDGDAGVKASPRDIREQSETTAEGGQGQAQEGPAQPGEPEAEGSRAAEE

Reference: publication PMC8194098
